Results: patent US20220177587A1, “METHODS AND USES OF VARIANT CD80 FUSION PROTEINS AND RELATED CONSTRUCTS” (Alpine Immune Sciences, Inc., priority 2018, published 2022)
Residue numbers refer to the chain shown, from its start. In names and notes the source's numbering stands.

B1: variant CD80 IgV-Fc Q33L/E35D/T41S/M47V (Fc fusion)
chain: VIHVTKEVKEVATLSCGHNVSVEELAQTRIYWLKDKKMVLSMMSGDVNIWPEYKNRTIFDITNNLSIVILALRPSDEGTYECVVLKYEKDAFKREHLAEVTLSVKAD
B2: variant CD80 IgV-Fc Q33L/E35D/M47I/T62N/L85Q (Fc fusion)
chain: B1 chain with S41T, V47I, T62N, L85Q
B3: variant CD80 IgV-Fc Q33L/E35D/M47I/L85Q (Fc fusion)
chain: B1 chain with S41T, V47I, L85Q
B4: variant CD80 IgV-Fc H18Y/E35D/M47L (Fc fusion)
chain: B1 chain with H18Y, L33Q, S41T, V47L
B5: variant CD80 IgV-Fc Q33L/E35D/M47V/L85Q (Fc fusion)
chain: B1 chain with S41T, L85Q
B6: variant CD80 IgV-Fc A26E/Q33R/E35D/M47L/L85Q (Fc fusion)
chain: B1 chain with A26E, L33R, S41T, V47L, L85Q
B7: variant CD80 IgV-Fc H18Y/A26E/Q33L/E35D/M47L/L85Q (Fc fusion)
chain: B1 chain with H18Y, A26E, S41T, V47L, L85Q
B8: variant CD80 IgV-Fc A26E/Q33R/E35D/M47L/L85Q/K86E (Fc fusion)
chain: B1 chain with A26E, L33R, S41T, V47L, L85Q, K86E
B9: variant CD80 IgV-Fc A26E/Q33L/E35D/M47L/L85Q (Fc fusion)
chain: B1 chain with A26E, S41T, V47L, L85Q
B10: variant CD80 IgV-Fc A26E/E35D/M43T/M47L/L85Q/R94Q (Fc fusion)
chain: B1 chain with A26E, L33Q, S41T, M43T, V47L, L85Q, R94Q
B11: variant CD80 IgV-Fc H18Y/Q33L/E35D/M47I (Fc fusion)
chain: B1 chain with H18Y, S41T, V47I
B12: variant CD80 IgV-Fc A26E/Q33L/E35D/M47L (Fc fusion)
chain: B1 chain with A26E, S41T, V47L
B13: variant CD80 IgV-Fc Q33L/E35D/M47I (Fc fusion)
chain: B1 chain with S41T, V47I
B14: variant CD80 IgV-Fc V22L/Q27H/E35D/M47I/A71G (Fc fusion)
chain: B1 chain with V22L, Q27H, L33Q, S41T, V47I, A71G
B15: variant CD80 IgV-Fc E35D/T41S/M43I/A71G/D90G (Fc fusion)
chain: B1 chain with L33Q, M43I, V47M, A71G, D90G
B16: variant CD80 IgV-Fc E35D/D46E/M47V/A71D/D90G (Fc fusion)
chain: B1 chain with L33Q, S41T, D46E, A71D, D90G
B17: variant CD80 IgV-Fc E35D/M47V/A71G/E88D (Fc fusion)
chain: B1 chain with L33Q, S41T, A71G, E88D

What follows are binders tested against CD28 (human) (UniProt P10747) (assay: flow cytometry, Jurkat/IL2 reporter cells (endogenous CD28); MFI ratio to WT CD80 ECD-Fc (R&D)).
B1 was tested, and the Fold change to WT was 0.04 fold.
With B2 the Fold change to WT was 0.04 fold.
Binder B3 has a Fold change to WT of 0.04 fold.
Binder B4 has a Fold change to WT of 0.66 fold.
With B5 the Fold change to WT was 0.04 fold.
Work on B6 yielded a Fold change to WT of 0.03 fold.
Work on B7 yielded a Fold change to WT of 0.04 fold.
Binder B8 has a Fold change to WT of 0.04 fold.
With B9 the Fold change to WT was 0.04 fold.
B10 was tested, and the Fold change to WT was 0.03 fold.
Work on B11 yielded a Fold change to WT of 0.04 fold.
B12 was tested, and the Fold change to WT was 0.04 fold.
B13 was tested, and the Fold change to WT was 0.04 fold.

What follows are binders tested against human CTLA-4 (human) (UniProt P16410) (assay: flow cytometry, CHO cells expressing huCTLA4).
human CTLA-4 (human), sequence (P16410 36-223): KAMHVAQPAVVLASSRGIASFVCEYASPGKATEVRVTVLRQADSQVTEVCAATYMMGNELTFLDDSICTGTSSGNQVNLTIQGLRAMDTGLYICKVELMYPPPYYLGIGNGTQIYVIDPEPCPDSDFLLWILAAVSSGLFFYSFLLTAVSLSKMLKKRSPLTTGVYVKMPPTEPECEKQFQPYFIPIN
With B14 the MFI at 33.3 nM was 152000 MFI.
B1 showed an MFI at 33.3 nM of 14500 MFI.
For B2, the MFI at 33.3 nM was 1660 MFI.
B3 showed an MFI at 33.3 nM of 20500 MFI.
For B15, the MFI at 33.3 nM was 208000 MFI.
In the case of B4, the MFI at 33.3 nM is reported as 284000 MFI.
In the case of B5, the MFI at 33.3 nM is reported as 75400 MFI.
Work on B6 yielded an MFI at 33.3 nM of 1280 MFI.
B16 gave an MFI at 33.3 nM of 275000 MFI.
B17 gave an MFI at 33.3 nM of 212000 MFI.
In the case of B7, the MFI at 33.3 nM is reported as 2090 MFI.
In the case of B8, the MFI at 33.3 nM is reported as 1280 MFI.
For B9, the MFI at 33.3 nM was 1170 MFI.
In the case of B10, the MFI at 33.3 nM is reported as 278000 MFI.
With B11 the MFI at 33.3 nM was 5540 MFI.
B12 gave an MFI at 33.3 nM of 1320 MFI.
B13 showed an MFI at 33.3 nM of 15900 MFI.

Each binder was assayed against human PD-L1 (human) (UniProt Q9NZQ7) (assay: flow cytometry, CHO cells expressing huPD-L1).
human PD-L1 (human), sequence (Q9NZQ7 19-290): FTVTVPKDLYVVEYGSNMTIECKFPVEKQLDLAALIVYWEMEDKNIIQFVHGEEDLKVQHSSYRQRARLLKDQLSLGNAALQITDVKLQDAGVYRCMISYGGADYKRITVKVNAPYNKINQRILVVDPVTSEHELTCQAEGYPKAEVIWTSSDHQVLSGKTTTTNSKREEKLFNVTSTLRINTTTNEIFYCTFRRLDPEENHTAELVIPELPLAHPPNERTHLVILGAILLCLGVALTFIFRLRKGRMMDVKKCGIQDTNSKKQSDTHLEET
For B14, the MFI at 33.3 nM was 43800 MFI.
With B1 the MFI at 33.3 nM was 43800 MFI.
With B2 the MFI at 33.3 nM was 72600 MFI.
B3 was tested, and the MFI at 33.3 nM was 63900 MFI.
For B4, the MFI at 33.3 nM was 44200 MFI.
Work on B5 yielded an MFI at 33.3 nM of 47400 MFI.
B6 showed an MFI at 33.3 nM of 81500 MFI.
For B16, the MFI at 33.3 nM was 32400 MFI.
Work on B17 yielded an MFI at 33.3 nM of 37100 MFI.
B7 showed an MFI at 33.3 nM of 76600 MFI.
B8 was tested, and the MFI at 33.3 nM was 76000 MFI.
B9 showed an MFI at 33.3 nM of 62700 MFI.
For B10, the MFI at 33.3 nM was 68100 MFI.
B11 gave an MFI at 33.3 nM of 47800 MFI.
Binder B12 has an MFI at 33.3 nM of 60900 MFI.
For B13, the MFI at 33.3 nM was 37400 MFI.

What follows are binders tested against human CTLA-4 (human) (UniProt P16410) (assay: flow cytometry, CHO cells expressing huCTLA4; MFI ratio to WT CD80 ECD-Fc (R&D)).
B1 showed a Fold change to WT CD80 of 0.08 fold.
Binder B2 has a Fold change to WT CD80 of 0.01 fold.
Binder B3 has a Fold change to WT CD80 of 0.11 fold.
B4 was tested, and the Fold change to WT CD80 was 1.59 fold.
B5 showed a Fold change to WT CD80 of 0.42 fold.
B6 showed a Fold change to WT CD80 of 0.01 fold.
For B7, the Fold change to WT CD80 was 0.01 fold.
In the case of B8, the Fold change to WT CD80 is reported as 0.01 fold.
Binder B9 has a Fold change to WT CD80 of 0.01 fold.
Work on B10 yielded a Fold change to WT CD80 of 1.56 fold.
B11 gave a Fold change to WT CD80 of 0.03 fold.
Work on B12 yielded a Fold change to WT CD80 of 0.01 fold.
For B13, the Fold change to WT CD80 was 0.09 fold.

What follows are binders tested against CD28 (human) (UniProt P10747) (assay: flow cytometry, Jurkat/IL2 reporter cells (endogenous CD28)).
In the case of B1, the MFI at 33.3 nM is reported as 287 MFI.
In the case of B2, the MFI at 33.3 nM is reported as 284 MFI.
With B3 the MFI at 33.3 nM was 287 MFI.
Binder B4 has an MFI at 33.3 nM of 5070 MFI.
Work on B5 yielded an MFI at 33.3 nM of 268 MFI.
Binder B6 has an MFI at 33.3 nM of 264 MFI.
In the case of B7, the MFI at 33.3 nM is reported as 272 MFI.
Binder B8 has an MFI at 33.3 nM of 275 MFI.
With B9 the MFI at 33.3 nM was 274 MFI.
In the case of B10, the MFI at 33.3 nM is reported as 260 MFI.
B11 was tested, and the MFI at 33.3 nM was 295 MFI.
Binder B12 has an MFI at 33.3 nM of 271 MFI.
B13 gave an MFI at 33.3 nM of 282 MFI.

These binders were tested against CD28 (human) (UniProt P10747) (assay: flow cytometry, Jurkat/IL2 reporter cells (CD28)).
Work on B14 yielded an MFI at 33.3 nM of 7270 MFI.
In the case of B17, the MFI at 33.3 nM is reported as 6240 MFI.

Each binder was assayed against human PD-L1 (human) (UniProt Q9NZQ7) (assay: flow cytometry, CHO cells expressing huPD-L1; MFI ratio to WT CD80 ECD-Fc (R&D)).
B1 showed a Fold change to WT of 5.52 fold.
For B2, the Fold change to WT was 9.14 fold.
With B3 the Fold change to WT was 8.05 fold.
B4 was tested, and the Fold change to WT was 5.56 fold.
B5 was tested, and the Fold change to WT was 5.97 fold.
B6 was tested, and the Fold change to WT was 10.3 fold.
For B7, the Fold change to WT was 9.64 fold.
B8 showed a Fold change to WT of 9.56 fold.
For B9, the Fold change to WT was 7.89 fold.
Work on B10 yielded a Fold change to WT of 8.57 fold.
B11 was tested, and the Fold change to WT was 6.02 fold.
B12 gave a Fold change to WT of 7.67 fold.
In the case of B13, the Fold change to WT is reported as 4.7 fold.

The binders below were run against human PD-L1 (human) (UniProt Q9NZQ7) (assay: flow cytometry; binding to PD-L1 cells against binding of the same variant to CD28 cells).
In the case of B1, the Ratio of PDL1:CD28 is reported as 153.
B2 showed a Ratio of PDL1:CD28 of 256.
Work on B3 yielded a Ratio of PDL1:CD28 of 222.
With B4 the Ratio of PDL1:CD28 was 9.
In the case of B5, the Ratio of PDL1:CD28 is reported as 177.
Binder B6 has a Ratio of PDL1:CD28 of 309.
B7 was tested, and the Ratio of PDL1:CD28 was 282.
For B8, the Ratio of PDL1:CD28 was 276.
For B9, the Ratio of PDL1:CD28 was 229.
B10 gave a Ratio of PDL1:CD28 of 262.
B11 gave a Ratio of PDL1:CD28 of 162.
In the case of B12, the Ratio of PDL1:CD28 is reported as 225.
B13 was tested, and the Ratio of PDL1:CD28 was 132.
